Assay [1] concerns the target T1, soluble RAGE (sRAGE), the soluble, extracellular portion of the human Receptor for Advanced Glycated … (human, UniProt Q15109 23-339). The assay is described as follows: ELISA saturation curves with Scatchard analysis (FIGS. 10 and 11), 500 and 100 ng/well S-100b coated, sRAGE about 23-470 nM or 5-76 nM; low affinity site, told for both experiments.
In assay [2] the target is T1, soluble RAGE (sRAGE), the soluble, …. As to the kind of experiment: ELISA saturation curve with Scatchard analysis (FIG. 8), 50 ng/well S-100b coated, sRAGE about 0.3-10 nM; high affinity component.
For assay [3] the target is unchanged. The assay is described as follows: ELISA saturation curve with Scatchard analysis (FIG. 9), 100 ng/well S-100b coated, sRAGE about 0.3-10 nM; high affinity component.

T1 sequence (Q15109 23-339 limits assumed): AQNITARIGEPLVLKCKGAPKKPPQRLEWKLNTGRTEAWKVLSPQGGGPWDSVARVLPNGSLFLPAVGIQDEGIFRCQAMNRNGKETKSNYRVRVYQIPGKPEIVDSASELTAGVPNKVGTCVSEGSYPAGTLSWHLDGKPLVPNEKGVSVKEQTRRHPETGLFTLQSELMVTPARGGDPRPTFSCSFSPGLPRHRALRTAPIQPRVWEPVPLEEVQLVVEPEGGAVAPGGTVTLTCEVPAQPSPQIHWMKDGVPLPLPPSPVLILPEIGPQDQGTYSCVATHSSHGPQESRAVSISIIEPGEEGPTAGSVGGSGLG

B1: S-100b (ligand)
chain: MSELEKAMVALIDVFHQYSGREGDKHKLKKSELKELINNELSHFLEEIKEQEVVDKVMETLDNDGDGECDFQEFMAFVAMVTTACHEFFEHE
On to B1, for which the values for the Kd in assay [1], in assay [2] and in assay [3] were ~60 nM, ~6 nM and ~2 nM, respectively.
